Reference: patent publication US20090208496A1 (BIOTEST, published 2009)
Numbering of substitutions follows the chain as printed. Names and notes keep the numbering of the source.

B1: humanized B-F5 version H37L/L4L (antibody, V domains shown)
VH: EEQLVESGGGLVKPGGSLRLSCAASGFSFSDCRMYWLRQAPGKGLEWIGVISVKSENYGANYAESVRGRFTISRDDSKNTVYLQMNSLKTEDTAVYYCSASYYRYDVGAWFAYWGQGTLVTVSS
VL: DIVLTQSPDSLAVSLGERATINCRASKSVSTSGYSYIYWYQQKPGQPPKLLIYLASILESGVPDRFSGSGSGTDFTLTISSLQAEDVAVYYCQHSRELPWTFGQGTKVEIK
notes: also called hB-F5; H37L/L4L IgG1
B2: humanized B-F5 version H37V/L4L (antibody, V domains shown)
VH: B1 VH with L37V
VL: B1 VL
notes: also called hB-F5
B3: humanized B-F5 version H37V/L4M (antibody, V domains shown)
VH: B1 VH with L37V
VL: B1 VL with L4M
notes: also called hB-F5
B4: humanized B-F5 version H37L/L4M (antibody, IgG1, V domains shown)
VH: B1 VH
VL: B1 VL with L4M
notes: also called hB-F5; H37L/L4M IgG1

Target: T1, soluble CD4 (human, UniProt P01730 26-396)
T1 construct: extracellular domain
Assay: competitive ELISA against biotinylated mB-F5 on coated soluble CD4, 37 C 2 hours
Method: Culture supernatants of transfectomas producing the four versions of hB-F5 were collected, and concentrated. The different antibodies were purified from culture supernatants by affinity chromatography using protein A Sepharose and assessed for their CD4 binding activity by measuring, by means of competitive ELISA, their inhibitory activities against the binding of biotinylated mB-F5 to soluble CD4 coated on microtiter plates. Incubation time is 2 hours for 37 C and overnight for 4 C.

| Binder | Relative binding activity (% of mB-F5) |
| --- | --- |
| B1 | 30 % of mB-F5 |
| B2 | 10 % of mB-F5 |
| B3 | 10 % of mB-F5 |
| B4 | 30 % of mB-F5 |
